Among the data in patent publication US20210363241A1 are MFI values, retold here.

Assay [1] has as its target Cynomolgus monkey CD226 on the cell surface of stably transfected HEK 293 cells (cynomolgus monkey). As to the kind of experiment: flow cytometry on HEK 293 cells expressing cynomolgus CD226, control IgG (denominator of the ratio).
Assay [2] addresses Human CD226 on the cell surface of stably transfected HEK 293 cells (human) (UniProt Q15762). As to the kind of experiment: flow cytometry on HEK 293 cells expressing human CD226, control IgG (denominator of the ratio).

Sequence of Human CD226 on the cell surface of stably transfected HEK 293 cells (human) (Q15762 19-336 limits assumed): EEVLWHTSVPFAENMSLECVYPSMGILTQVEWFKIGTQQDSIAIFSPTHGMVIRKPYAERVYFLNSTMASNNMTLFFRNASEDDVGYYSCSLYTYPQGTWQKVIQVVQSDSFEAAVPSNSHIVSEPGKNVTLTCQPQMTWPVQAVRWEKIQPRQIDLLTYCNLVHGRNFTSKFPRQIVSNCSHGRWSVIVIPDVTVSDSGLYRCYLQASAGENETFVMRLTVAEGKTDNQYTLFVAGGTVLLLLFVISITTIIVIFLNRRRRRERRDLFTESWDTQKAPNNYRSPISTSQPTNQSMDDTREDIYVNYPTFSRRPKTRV
Sequence of Cynomolgus monkey CD226 on the cell surface of stably transfected HEK 293 cells (cynomolgus monkey) (chain, as listed by the source): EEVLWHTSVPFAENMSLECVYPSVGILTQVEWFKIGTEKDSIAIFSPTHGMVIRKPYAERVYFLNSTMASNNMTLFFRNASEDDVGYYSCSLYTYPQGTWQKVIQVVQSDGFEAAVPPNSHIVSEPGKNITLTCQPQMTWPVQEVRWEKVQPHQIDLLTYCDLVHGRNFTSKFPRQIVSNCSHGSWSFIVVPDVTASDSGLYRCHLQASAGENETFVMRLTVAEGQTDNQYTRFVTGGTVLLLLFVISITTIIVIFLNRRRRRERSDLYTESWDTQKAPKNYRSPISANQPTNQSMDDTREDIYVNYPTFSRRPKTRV

For Control human IgG1 (antibody), the MFI in assay [1] was found to be 3.94; in assay [2] it was 8.98.
